Here are results for one molecule from patent US20210230286A1 (published 2021).

This assay concerns the target T1, PD-L1 protein (human, UniProt Q9NZQ7 19-238, limits assumed).
T1 construct: Plate-coated recombinant protein; also called human PD-L1 protein
Kind of assay: ELISA: PD-L1 coated at 2 ug/ml, FITC-labelled PPLC titrated, HRP anti-FITC detection, OD 410 nm. The procedure:
A 96-well ELISA plate was coated with 2μg/ml PD-L1 protein at 4° C. overnight. […] After incubation, HRP-conjugated anti-FITC antibody was added, incubated for 1 h, and then ABTS coloring solution was added. The OD value at 410 nm was measured using a M5 microplate reader, and GraphPad Prism 6 was used for plotting and analysis.
In general terms: ELISA stands for enzyme-linked immunosorbent assay.

Where no end group is shown, it is not given here.

T1 sequence (Q9NZQ7 19-238 limits assumed): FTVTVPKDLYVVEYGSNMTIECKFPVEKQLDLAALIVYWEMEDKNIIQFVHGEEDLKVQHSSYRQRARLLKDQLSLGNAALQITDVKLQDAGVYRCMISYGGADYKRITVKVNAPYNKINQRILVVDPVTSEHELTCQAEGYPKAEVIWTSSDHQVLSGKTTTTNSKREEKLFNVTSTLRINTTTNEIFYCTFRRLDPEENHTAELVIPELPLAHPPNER

B1: PPLC peptide labeled with FITC (peptide)
peptide: VSVSHFQKVWVV
modifications: also: FITC label, attachment not given here
notes: Chemically synthesized peptide; The FITC-labelled form was used in the direct ELISA, flow cytometry and confocal assays; also called FITC-labeled PPLC
In turn, B1 yielded a Kd of 750 nM.

As usually defined, the Kd is the equilibrium constant for the complex coming apart. A higher Kd goes with a looser complex.
